From patent US20160024487A1, “THROMBIN SENSITIVE COAGULATION FACTOR X MOLECULES” (NOVO NORDISK A/S, priority 2013, published 2016)
“And” between values parts separate entries of the source, which are not always exact repeats. Identical values can stand only once. Where no end group is shown, it is not given here. The star is where a group is joined. Dnp = O=[N+]([O-])c1ccc(*)c([N+](=O)[O-])c1; 2Abz = Nc1ccccc1C(=O)O

Tests used:
[1] = target: T1, Human plasma purified Factor Xa (Homo sapiens, UniProt P00742); experiment: Factor Xa cleavage kinetics of quenched fluorescence (QF) peptide substrates, progress curve; type: biochemical; details: for Specificity Ratio (FIIa/FXa): FIIa kcat/KM divided by FXa kcat/KM, natural sequence QF substrates; for specificity ratio: X4/X3 positional scanning QF library (Table 4), FIIa/FXa
T1 construct: purchased Molecular Innovations, Inc, Novi Mich., USA; host or cells: human plasma
T1 sequence (P00742 41-179 limits assumed): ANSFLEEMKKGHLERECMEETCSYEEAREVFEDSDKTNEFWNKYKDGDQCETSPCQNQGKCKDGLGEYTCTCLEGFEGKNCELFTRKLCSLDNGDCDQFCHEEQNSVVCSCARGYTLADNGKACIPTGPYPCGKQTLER
T1 sequence (P00742 235-488 limits assumed): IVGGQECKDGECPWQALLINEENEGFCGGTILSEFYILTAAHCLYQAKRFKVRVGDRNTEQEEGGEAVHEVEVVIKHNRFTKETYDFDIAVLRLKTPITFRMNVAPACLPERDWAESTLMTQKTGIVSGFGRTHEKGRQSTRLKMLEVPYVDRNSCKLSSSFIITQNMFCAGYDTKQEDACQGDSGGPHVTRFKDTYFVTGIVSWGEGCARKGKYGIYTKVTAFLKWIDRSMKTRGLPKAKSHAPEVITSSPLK

[2] = target: Human plasma purified α-thrombin (Homo sapiens, UniProt P00734); experiment: Thrombin cleavage kinetics of quenched fluorescence (QF) peptide substrates, progress curve; type: biochemical; details: for Fold-Improved (FpA): kcat/KM relative to FpA substrate Lys(Dnp)-DFLAEGGGVRIVGG-Lys(Abz); for Fold-Improved (PAR-1): kcat/KM relative to PAR 1 control substrate Lys(Dnp)-ATNATLDPRIVGG-Lys(Abz)

Specificity Ratio (FIIa/FXa) [1] | Fold-Improved (FpA) [2] | Fold-Improved (PAR-1) [2] | specificity ratio [1] [fold] | Substance
0 | 0.001 | 0.000 |  | Antithrombin: QF substrate Lys(Dnp)-X10-X1-IVGG-Lys(Abz), X10-X1 = ASTAVVIAGR (K(Dnp)ASTAVVIAGRIVGGK(2Abz))
2 | 77.2 | 11.2 |  | Factor V (1): QF substrate Lys(Dnp)-X10-X1-IVGG-Lys(Abz), X10-X1 = HTHHAPLSPR (K(Dnp)HTHHAPLSPRIVGGK(Abz))
302 | 1.8 | 0.3 |  | Factor V (2): QF substrate Lys(Dnp)-X10-X1-IVGG-Lys(Abz), X10-X1 = NRLAAALGIR (K(Dnp)NRLAAALGIRIVGGK(2Abz))
7 | 0.2 | 0.03 |  | Factor V (3): QF substrate Lys(Dnp)-X10-X1-IVGG-Lys(Abz), X10-X1 = PDNIAAWYLR (K(Dnp)PDNIAAWYLRIVGGK(2Abz))
 | 32.3 | 4.7 |  | Factor VIII (1): QF substrate Lys(Dnp)-X10-X1-IVGG-Lys(Abz), X10-X1 = LSKNNAIEPR (K(Dnp)LSKNNAIEPRIVGGK(2Abz))
13 | 2.3 | 0.3 |  | Factor VIII (2): QF substrate Lys(Dnp)-X10-X1-IVGG-Lys(Abz), X10-X1 = YDEDENQSPR (K(Dnp)YDEDENQSPRIVGGK(2Abz))
559 | 49.2 | 7.1 |  | Factor XI: QF substrate Lys(Dnp)-X10-X1-IVGG-Lys(Abz), X10-X1 = NESTTKIKPR (K(Dnp)NESTTKIKPRIVGGK(2Abz))
114 | 28.7 | 4.2 |  | Factor XIII: QF substrate Lys(Dnp)-X10-X1-IVGG-Lys(Abz), X10-X1 = TVELQGVVPR (K(Dnp)TVELQGVVPRIVGGK(Abz))
6914 | 97.8 | 14.2 |  | FpA_P: QF substrate Lys(Dnp)-X10-X1-IVGG-Lys(Abz), X10-X1 = DFLAEGGGPR; FpA with proline at X2 (K(Dnp)DFLAEGGGPRIVGGK(2Abz))
1 | 0.7 | 0.1 |  | FpB: QF substrate Lys(Dnp)-X10-X1-IVGG-Lys(Abz), X10-X1 = DNEEGFFSAR (K(Dnp)DNEEGFFSARIVGGK(2Abz))
121 |  |  |  | Lys(Dnp)-DFLAEGGGVRIVGG-Lys(Abz) (K(Dnp)DFLAEGGGVRIVGGK(2Abz)) [FpA, reference compound]
 |  |  | ~300 | MKPR: QF library substrate Lys(Dnp)-ATNATX4X3PRIVGG-Lys(Abz) with X4-X1 = MKPR (K(Dnp)ATNATMKPRIVGGK(2Abz))
 |  |  | ~300 | MTPR: QF library substrate Lys(Dnp)-ATNATX4X3PRIVGG-Lys(Abz) with X4-X1 = MTPR (K(Dnp)ATNATMTPRIVGGK(2Abz))
239 | 1.0 | 0.1 |  | Osteopontin: QF substrate Lys(Dnp)-X10-X1-IVGG-Lys(Abz), X10-X1 = RGDSVVYGLR (K(Dnp)RGDSVVYGLRIVGGK(Abz))
4 |  |  |  | PAR1 (2): QF substrate with X8-X1 = TNATLDPR, prime side IVGG (KTNATLDPRIVGGK)
4 |  |  |  | PAR1 (3): QF substrate with X6-X1 = ATLDPR, prime side IVGG (KATLDPRIVGGK)
 | 9.7 and 8.9 and 8.2 | 1.4 and 1.3 and 1.2 |  | PAR 1: QF substrate Lys(Dnp)-X10-X1-IVGG-Lys(Abz), X10-X1 = KATNATLDPR (Table 3 r16) (K(Dnp)ATNATLDPRIVGGK(2Abz); also: template implies Lys(Dnp) before X10 K, letters have one K, taken as Lys(Dnp))
5 | 0.04 | 0.01 |  | PAR 3: QF substrate Lys(Dnp)-X10-X1-IVGG-Lys(Abz), X10-X1 = NLAKPTLPIK (K(Dnp)NLAKPTLPIKIVGGK(2Abz))
40 | 23.1 | 3.4 |  | PAR 4: QF substrate Lys(Dnp)-X10-X1-IVGG-Lys(Abz), X10-X1 = STPSILPAPR (K(Dnp)STPSILPAPRIVGGK(2Abz))
133 | 4.4 | 0.6 |  | Protein C: QF substrate Lys(Dnp)-X10-X1-IVGG-Lys(Abz), X10-X1 = EDQEDQVDPR (K(Dnp)EDQEDQVDPRIVGGK(2Abz))
16 | 13.1 | 1.9 |  | TAFI: QF substrate Lys(Dnp)-X10-X1-IVGG-Lys(Abz), X10-X1 = QISNDTVSPR (K(Dnp)QISNDTVSPRIVGGK(Abz))
64 | 73.6 | 10.7 |  | Thrombin (1): QF substrate Lys(Dnp)-X10-X1-IVGG-Lys(Abz), X10-X1 = DQVTVAMTPR (K(Dnp)DQVTVAMTPRIVGGK(2Abz))
0 | 48.7 | 7.1 |  | Thrombin (2): QF substrate Lys(Dnp)-X10-X1-IVGG-Lys(Abz), X10-X1 = SEYQTFFNPR (K(Dnp)SEYQTFFNPRIVGGK(Abz))
141 | 0.000 | 0.000 |  | Thrombin (3): QF substrate Lys(Dnp)-X10-X1-IVGG-Lys(Abz), X10-X1 = EDSDRAIEGR (K(Dnp)EDSDRAIEGRIVGGK(2Abz))
 |  |  | ~300 | WTPR: QF library substrate Lys(Dnp)-ATNATX4X3PRIVGG-Lys(Abz) with X4-X1 = WTPR (K(Dnp)ATNATWTPRIVGGK(2Abz))
